Laboratory results reported in patent US20220242950A1 (CANTARGIA, published 2022).

Experiments:
pig IL1RAP = molecular target: T1, pig IL1RAP (pig (Sus scrofa), UniProt A0A287B9B9 21-357); assay: indirect ELISA on coated IL1RAP, goat anti-human antibody-alkaline phosphatase, absorbance at 405 nm
T1 construct: also called ssIL1RAP

rat IL1RAP = molecular target: T2, rat IL1RAP (rat (Rattus norvegicus), UniProt Q63621 21-367, limits assumed); assay: as above
T2 construct: also called rnIL1RAP
T2 sequence (looked up): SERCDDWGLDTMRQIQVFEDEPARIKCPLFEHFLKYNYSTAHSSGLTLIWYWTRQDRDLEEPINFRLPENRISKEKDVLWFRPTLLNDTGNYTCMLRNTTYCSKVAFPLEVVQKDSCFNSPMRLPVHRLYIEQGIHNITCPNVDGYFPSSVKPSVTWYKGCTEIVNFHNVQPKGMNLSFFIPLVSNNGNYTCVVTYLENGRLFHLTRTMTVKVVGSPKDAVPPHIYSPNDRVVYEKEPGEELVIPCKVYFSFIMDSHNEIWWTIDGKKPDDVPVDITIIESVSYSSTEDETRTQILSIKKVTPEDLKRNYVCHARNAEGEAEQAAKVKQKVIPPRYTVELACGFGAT

mouse IL1RAP = molecular target: T3, mouse IL1RAP (mouse (Mus musculus), UniProt Q61730 21-367, limits assumed); assay: as above
T3 construct: Coated ortholog in the cross reactivity ELISA; also called mIL1RAP; murine IL1RAP
T3 sequence (looked up): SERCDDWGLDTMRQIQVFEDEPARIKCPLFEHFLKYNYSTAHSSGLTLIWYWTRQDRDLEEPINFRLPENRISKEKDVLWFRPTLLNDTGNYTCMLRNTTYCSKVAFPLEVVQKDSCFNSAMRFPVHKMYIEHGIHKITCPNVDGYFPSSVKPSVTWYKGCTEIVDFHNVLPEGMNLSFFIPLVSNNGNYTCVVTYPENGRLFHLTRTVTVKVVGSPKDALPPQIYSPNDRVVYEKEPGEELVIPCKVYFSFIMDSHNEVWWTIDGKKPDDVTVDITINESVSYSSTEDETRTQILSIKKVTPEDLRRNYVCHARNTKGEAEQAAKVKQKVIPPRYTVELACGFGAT

[1] = molecular target: T4, recombinant hIL1RAP Domain1+2+3 (aa21-367) (human, UniProt Q9NPH3 21-367); assay: as above
T4 construct: Numbering on Uniprot Q9NPH3
T4 sequence (looked up): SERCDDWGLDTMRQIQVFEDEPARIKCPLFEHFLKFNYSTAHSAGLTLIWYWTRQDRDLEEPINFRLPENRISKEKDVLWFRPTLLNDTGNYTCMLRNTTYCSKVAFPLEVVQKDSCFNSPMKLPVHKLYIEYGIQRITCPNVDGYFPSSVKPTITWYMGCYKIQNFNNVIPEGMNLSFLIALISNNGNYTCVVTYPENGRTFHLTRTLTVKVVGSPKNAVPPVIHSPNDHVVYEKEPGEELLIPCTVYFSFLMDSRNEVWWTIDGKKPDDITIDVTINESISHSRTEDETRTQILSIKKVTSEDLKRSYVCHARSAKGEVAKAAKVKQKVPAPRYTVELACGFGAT

[2] = molecular target: T5, recombinant mf IL1RAP aa21-367 (cynomolgus monkey (Macaca fascicularis), UniProt A0A2K5X5J5 21-367); assay: as above
T5 construct: also called cynomolgus monkey IL1RAP; cyno IL1RAP
T5 sequence: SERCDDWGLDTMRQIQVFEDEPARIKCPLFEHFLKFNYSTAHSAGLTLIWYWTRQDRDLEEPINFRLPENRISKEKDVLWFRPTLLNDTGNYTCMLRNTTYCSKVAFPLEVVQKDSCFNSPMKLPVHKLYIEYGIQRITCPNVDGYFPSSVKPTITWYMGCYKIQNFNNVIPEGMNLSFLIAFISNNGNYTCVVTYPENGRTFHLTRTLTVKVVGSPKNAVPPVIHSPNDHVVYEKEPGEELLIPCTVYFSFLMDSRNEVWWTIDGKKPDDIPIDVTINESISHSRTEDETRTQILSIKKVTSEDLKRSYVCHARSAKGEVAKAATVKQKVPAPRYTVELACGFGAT

[3] = molecular target: T6, human IL1RAP on the cell surface (human, UniProt Q9NPH3 21-570); assay: cell-based or functional assay
T6 sequence (looked up): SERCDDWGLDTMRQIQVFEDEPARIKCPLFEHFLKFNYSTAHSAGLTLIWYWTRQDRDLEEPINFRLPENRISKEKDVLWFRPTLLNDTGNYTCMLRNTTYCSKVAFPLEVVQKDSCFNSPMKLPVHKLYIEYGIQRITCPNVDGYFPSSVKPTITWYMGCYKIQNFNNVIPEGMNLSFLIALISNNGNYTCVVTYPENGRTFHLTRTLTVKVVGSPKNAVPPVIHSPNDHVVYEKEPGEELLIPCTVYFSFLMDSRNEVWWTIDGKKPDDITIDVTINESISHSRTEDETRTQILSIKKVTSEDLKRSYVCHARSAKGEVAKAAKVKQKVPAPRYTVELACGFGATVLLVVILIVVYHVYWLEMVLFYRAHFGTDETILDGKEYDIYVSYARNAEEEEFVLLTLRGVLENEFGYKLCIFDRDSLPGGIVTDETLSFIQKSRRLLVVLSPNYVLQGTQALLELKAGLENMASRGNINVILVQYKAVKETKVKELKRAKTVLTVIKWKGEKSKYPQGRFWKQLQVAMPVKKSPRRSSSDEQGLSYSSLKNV

[4] = molecular target: T4, recombinant hIL1RAP Domain1+2+3 …; assay: BLI (BLItz), antibody on Protein A biosensor, hIL1RAP (21-367) in solution
Protocol: (§1) Affinity measurements were done on BLItz™ Label-Free Protein Analysis System from ForteBio, using the Basic Kinetics module in the BLItz Pro 1.3.1.3 software from Molecular Devices. Protein A biosensors were hydrated in blocking buffer (PBS, 0.5% BSA, 0.05% Tween 20, pH 7.4) for minimum 10 min at room temperature before coating. Protein A biosensors were coated with antibodies by dipping the biosensors in 200 μl of antibody solution (10 μg/ml in blocking buffer) for 30 min at room temperature. The sensors were then incubated in 200 μl blocking buffer for at least 10 min before use. […] The baseline was made in blocking buffer with a duration time of 30 sec. Association was made for 120 sec in hIL1RAP followed by 120 sec dissociation in blocking buffer.
Affinity measurement results are shown in Table 4 for chimeric 48D2, as well as for humanized 48D2 variant VH5:VL4 (see Example 11) and for humanized and de-immunized 48D2 variant VH5.GL:VL4 (see Example 13). kₐ is the association rate constant, for characterization of the antibody binding to the target, kd is the dissociation rate constant, for characterization of the antibody dissociation from the target, and KD is the equilibrium dissociation constant between the antibody and its antigen, the ratio of kd/kₐ. […] The lower the KD value (lower concentration), the higher the affinity.

[5] = molecular target: T4, recombinant hIL1RAP Domain1+2+3 …; assay: bio-layer interferometry, human IL1RAP
Protocol: as §1
KD values for affinity towards human IL1RAP are shown in Table 17 for the de-immunized h48D2 variants. Affinity was measured using bio-layer interferometry. […] See also Table 4 for a direct comparison of 48D2, humanized 48D2, and de-immunized h48D2.

[6] = molecular target: T6, human IL1RAP on the cell surface; assay: cell-based or functional assay; remark: listed apart in the source

T1 sequence (A0A287B9B9 entry or part of it limits assumed): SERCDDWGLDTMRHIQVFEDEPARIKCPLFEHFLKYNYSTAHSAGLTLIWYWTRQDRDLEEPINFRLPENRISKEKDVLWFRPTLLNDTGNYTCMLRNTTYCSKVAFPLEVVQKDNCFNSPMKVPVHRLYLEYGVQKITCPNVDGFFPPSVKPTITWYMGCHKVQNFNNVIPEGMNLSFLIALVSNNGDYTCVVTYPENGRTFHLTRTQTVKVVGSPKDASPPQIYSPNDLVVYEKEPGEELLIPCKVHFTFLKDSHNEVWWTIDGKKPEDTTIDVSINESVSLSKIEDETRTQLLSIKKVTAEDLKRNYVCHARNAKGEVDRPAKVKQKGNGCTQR

- EC50 (read off the curve) (pig IL1RAP): ~50 ng/mL
- binding result (rat IL1RAP): no binding (tested: 4000 ng/mL)
- binding result (mouse IL1RAP): no binding (tested: 4000 ng/mL)
- EC50 (read off the curve) [1]: ~50 ng/mL
- EC50 (read off the curve) [2]: ~50 ng/mL
- IC50 of IL-33 signaling (HEK-Blue cells stably transfected with the IL-36 receptor) [3]: 0.324 nM
- IC50 of IL-36α signaling (HEK-Blue cells stably transfected with the IL-36 receptor) [3]: 0.0557 nM
- IC50 of IL-36β signaling (HEK-Blue cells stably transfected with the IL-36 receptor) [3]: 0.161 nM
- IC50 of IL-36γ signaling (HEK-Blue cells stably transfected with the IL-36 receptor) [3]: 0.088 nM
- Kd [4]: 2.53 nM
- koff [4]: 0.000197 s⁻¹
- kon [4]: 78000 M⁻¹ s⁻¹
- Kd [5]: 2.53 nM
- IC50 of IL-1α signaling (HEK-Blue assay) [6]: 0.268 nM
- IC50 of IL-1β signaling (HEK-Blue assay) [6]: 0.097 nM
- IC50 of IL-33 signaling (HEK-Blue assay) [6]: 7.51 nM
- IC50 of IL-36α signaling (HEK-Blue assay) [6]: 0.147 nM
- IC50 of IL-36β signaling (HEK-Blue assay) [6]: 0.169 nM
- IC50 of IL-36γ signaling (HEK-Blue assay) [6]: 0.206 nM
B1: h48D2 VH5.GL:VL4 (antibody, human IgG1, kappa, L234A L235A, V domains shown)
VH: QEQLEESGGGLVKPGGTLSLTCTVSGPSLSHFDITWIRQPPGKGLEWIGTISPGVSTYYASWAKSRVTISVDTSLNTVSLKLSSVTAADTATYFCARGGVGSSWKAFDLWGPGTLVTISS
VL: ELVMTQSPSSVSASVGDRVTITCQASESISTALAWYQQKPGKAPKLLIYKASTLPSGVPSRFSGSGSGTDFTLTINSLQPEDFATYYCQQGFSSGNVHNAFGGGTKVEIKR
notes: Humanized and de-immunized; also called VL4:VH5.GL; 48D2 variant VH5.GL:VL4
